Reference: patent US20160122430A1 (AbbVie / Abbott, published 2016)
Residue numbers refer to the chain shown, from its start. In names and notes the source's numbering stands.

B1: CS1.AD159.27A12 (antibody, V domains shown)
VH: EVKLVESEGGLVQPGSSMKLSCTASGFTFSDYYMAWVRQVPEKGLEWVAEINYDGSSTYYLDSLKSRFIISRDNAKNILYLQMSNLKSEDTATYYCARDRGFYFDYWGQGTTLTVSS
VL: DVVMTQTPLSLPVSLGDQASISCRSSQSLVHNNGNTYLHWYLQKPGQSPKLLIYKVSNRFSGVPDRFSGSGSGTDFTLKISRVEAEDLGVYFCSQSTHVPPYTFGGGTKLEIK
notes: Murine hybridoma antibody; also called Mu27A12
B2: CS1.AD159.12D10 (antibody, V domains shown)
VH: B1 VH with Y33F, E50S, S56N, Y60F, N85S
VL: B1 VL with S25F, N32R, P100R, K113R
notes: Murine hybridoma antibody; also called Mu12D10
B3: CS1.AD159.14C11 (antibody, V domains shown)
VH: B1 VH with E50S, N85G, Y95S
VL: B1 VL with N32R
notes: Murine hybridoma antibody; also called Mu14C11
B4: CS1.AD159.31D2 (antibody, V domains shown)
VH: B1 VH with E50D, S56G, Y80C, N85S, F102Y
VL: B1 VL with N32S, Y102F
notes: Murine hybridoma antibody; also called Mu31D2
B5: CS1.AD159.34C3 (antibody, V domains shown)
VH: B1 VH with E50S, Y80F, S84N, N85S, F102Y
VL: B1 VL with N32S, Y102F
notes: Murine hybridoma antibody; also called Mu34C3
B6: HuCS1.34C3 (antibody, human IgG1, kappa, V domains shown)
VH: EVQLVESGGGLVQPGGSLRLSCAASGFTFSDYYMAWVRQAPGKGLEWVASINYDGSSTYYVDSVKGRFTISRDNAKNSLYLQMNSLRAEDTAVYYCARDRGYYFDYWGQGTTVTVSS
VL: DVVMTQTPLSLSVTPGQPASISCRSSQSLVHSNGNTYLHWYLQKPGQSPQLLIYKVSNRFSGVPDRFSGSGSGTDFTLKISRVEAEDVGVYFCSQSTHVPPFTFGGGTKVEIKR
notes: Humanized IgG1; also called Hu34C3
B7: elotuzumab (antibody, IgG1, V domains shown)
VH: EVQLVESGGGLVQPGGSLRLSCAASGFDFSRYWMSWVRQAPGKGLEWIGEINPDSSTINYAPSLKDKFIISRDNAKNSLYLQMNSLRAEDTAVYYCARPDGNYWYFDVWGQGTLVTVSS
VL: DIQMTQSPSSLSASVGDRVTITCKASQDVGIAVAWYQQKPGKVPKLLIYWASTRHTGVPDRFSGSGSGTDFTLTISSLQPEDVATYYCQQYSSYPYTFGQGTKVEIKR
notes: also called HuLuc63
B8: Hu34C3 S55E (antibody, V domains shown)
VH: B6 VH with S56E
VL: B1 VL with P12S, S14T, L15P, D17Q, Q18P, N32S, K50Q, L88V, Y102F, L110V
B9: Hu34C3 N30L (antibody, V domains shown)
VH: B6 VH
VL: DVVMTQTPLSLSVTPGQPASISCRSSQSLVHSNGLTYLHWYLQKPGQSPQLLIYKVSNRFSGVPDRFSGSGSGTDFTLKISRVEAEDVGVYFCSQSTHVPPFTFGGGTKVEIK
B10: Hu34C3 S55E/N30L (antibody, V domains shown)
VH: B6 VH with S56E
VL: B9 VL
notes: Double mutant of Hu34C3
B11: HuCS1.27A12 (antibody, V domains shown)
VH: B6 VH with S50E, Y102F
VL: B9 VL with S32N, L35N, F102Y
notes: Humanized antibody; It has a human Fc (detected with anti-human Fc); also called Hu27A12
B12: HuCS1.31D2.2 (antibody, V domains shown)
VH: B6 VH with S50D, S56G, V61L, V64L, G66S, T112L
VL: B9 VL with T7S, S12P, Q17E, L35N
notes: Humanized antibody; It has a human Fc (detected with anti-human Fc); also called Hu31D2

Columns and labels:
human CS1 ECD-huIgG1 = target: T1, human CS1 ECD-huIgG1 (human, UniProt Q9NQ25 23-226); assay: hybridoma screen of Example 1 (ELISA on ECD-huIgG1 fusions, flow cytometry on OPM-2 cells); member named in Table 5
T1 construct: Its preparation is not described; also called HuCS1Fc; HuCS1-Fc; not shown: constant region of human IgG1 (huIgG1 Fc)
Method: Specificity of antibodies secreted by hybridomas was determined by binding to human CS1 ECD-huIgG1 and CmCS1 ECD-huIgG1, and not to negative control CLL1 ECD-huIgG1 by ELISA. […] Hybridoma supernatants were allowed to bind to the proteins and detected with an HRP conjugated donkey anti mouse IgG (H+L) antibody. Hybridomas that recognized both human and cynomolgus but not CLL fusion proteins were further tested for binding to the huCS1 molecule on an endogenously expressing OPM-2 cells using standard flow cytometry protocols. Briefly, OPM-2 cells were incubated with hybridoma supernatants for 30 minutes on ice. After extensive washing, cells were incubated with phycoerythrin conjugated goat anti mouse IgG specific antibodies for 30 minutes on ice. Cells were washed again and analyzed on a Becton Dickinson FACSCalibur for the presence of cell surface bound antibodies.

human CS1 (HuCS1) [1] = target: T2, human CS1 (HuCS1) (human, UniProt Q9NQ25 23-335); assay: flow cytometry on L-363 cells; GeoMean (max) relative to elotuzumab
T2 construct: also called FL-HuCS1; SLAMF7
Method: (§1) L-363 cells were incubated with different amounts of test antibody on ice for 30 min. Cells were washed three times with PBS+1% FBS. A PE-conjugated goat anti-human Fc antibody was added to the cells and incubated for 30 min on ice. Cells were washed three times with PBS+1% FBS, and binding was quantitated by flow cytometry.

human CS1 (HuCS1) [2] = target: T2, human CS1 (HuCS1); assay: flow cytometry on 293s cells transfected with human CS1
human CS1 (HuCS1) [3] = target: T2, human CS1 (HuCS1); assay: flow cytometry on L-363 cells; maximum fluorescent value at any tested concentration
Method: as §1

human CS1 (HuCS1) [4] = target: T2, human CS1 (HuCS1); assay: flow cytometry on L-363 cells, PE goat anti-human Fc detection
Method: as §1

human CS1 (HuCS1) [5] = target: T2, human CS1 (HuCS1); assay: FACS, binding relative to Hu34C3; cells not given

Binder | binding result (human CS1 ECD-huIgG1) | % of Elotuzumab (human CS1 (HuCS1) [1]) [%] | GeoMean (max) (human CS1 (HuCS1) [3]) | EC50 (human CS1 (HuCS1) [4]) [nM] | further results
B1 | binds | – | – | – | –
B2 | binds | – | – | – | –
B3 | binds | – | – | – | –
B4 | binds | – | – | – | –
B5 | binds | – | – | – | –
B6 | – | 249 | 43.5 | 2.5 | concentration at which 80% of maximal binding occurred (human CS1 (HuCS1) [2]): 10 µg/mL
B7 | – | 100 | 17.5 | 35.9 | –
B8 | – | – | – | – | % Binding (human CS1 (HuCS1) [5]): 125%
B9 | – | – | – | – | % Binding (human CS1 (HuCS1) [5]): 128%
B10 | – | – | – | – | % Binding (human CS1 (HuCS1) [5]): 134%
B11 | – | 142 | 24.8 | 4.7 | –
B12 | – | 160 | 28 | 3.1 | –
